The values below come from US20240058465A1 (SUTRO BIOPHARMA, published 2024).

Test [1] concerns the target T1, human ROR1 Frizzled domain (hROR1-Fz) (human, UniProt Q01973 165-305).
T1 construct: Acro Biosystems, made in HEK293
Nature of the test: SPR Biacore, IgG on anti-Fc, ROR1-Fz analyte. The method, boiled down: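 Test antibodies captured on an anti-Fc surface (CM5 chip), then analyte bound for 180 s with 600 s dissociation at 25° C in HBS-EP+ buffer at 50 μL/min. Human ROR1 ECD, Frizzled or Kringle domain used as analyte; regeneration with 10 mM glycine pH 2.0.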

The next test addresses T2, human ROR1 (hROR1) (human, UniProt Q01973 30-937).
T2 construct: On HCT116-hROR1 transfectants, Mino cells or Ntera-2 cells, as the assay of each row says; also called receptor tyrosine kinase like orphan receptor 1
Nature of the test: flow cytometry, HCT116-hROR1 cells.

The target of test [2] is T3, human ROR1 (hROR1) expressed on cells (human, UniProt Q01973 30-937).
T3 construct: Mino cells are the target positive cells of the killing assay; also called receptor tyrosine kinase like orphan receptor 1; HCT 116-hROR1
Nature of the test: flow cytometry, HCT116-hROR1 cells.

B1: SRP2196-B03 (antibody, V domains shown)
VH: EVQLVESGGGLAQPGGSLRLSCAASGFNITGYYIHWVRQAPGKGLEWVGYISPNSGATHYADSVKGRFTISADTSKNTAYLQMNSLRAEDTAVYYCARDSRRYVRPFDYWGQGTLVTVSS
VL: QAVVTQESALTTSPGETVTLTCRSSTGAVTTSNYANWVQEKPDHLFTGLIGGTNKRAPGVPARFSGSLIGDKAALTITGAQTEDEAIYFCALWYSNLWVFGGGTKLTVL
notes: His/FLAG-tagged IgG1
In test [1], B1 showed a Kd of 7.64 nM, a koff of 0.000945 s⁻¹ and a kon of 124000 M⁻¹ s⁻¹. Also, in the test with human ROR1 (hROR1), the “Bmax (MFI)” value turned out to be 15600 MFI and the Kd was found to be 0.6 nM.

B2: SRP1944-A07 w SP34 LC3 (antibody, V domains shown)
VH: EVQLVESGGGLVQPGGSLRLSCAASGFNITGYYIHWVRQAPGKGLEWVGYISPNSGSTYYADSVKGRFTISADTSKNTAYLQMNSLRAEDTAVYYCARDSRRYVRPFDYWGQGTLVTVSS
VL: QTVVTQEPSLTVSPGGTVTLTCGSSTGAVTSGYYPNWFQQKPGQAPRGLIGGTKFLAPGTPARFSGSLLGGKAALTLSGVQPEDEAEYYCALWYSNRWVFGGGTQLTVTG
notes: Parent of SRP2196; IgG
Consider B2, for which, in test [1], the Kd was determined as 14.3 nM, the koff stood at 0.0085 s⁻¹ and the kon was found to be 597000 M⁻¹ s⁻¹. Moreover, in the test with human ROR1 (hROR1), the “Bmax (MFI)” value was 13200 MFI and the Kd stood at 0.1 nM.

B3: SRP2196-A09 (antibody, V domains shown)
VH: EVQLVESGGGLVQPGGSLRLSCAASGFNITGYYIHWVRQAPGKGLEWVGQISPNSGATHYADSVKGRFTISADTSKNTAYLQMNSLRAEDTAVYYCARDSRRYIRSWDYWGQGTLVTVSS
VL: QAVVTQESALTTSPGETVTLTCRSSTGAVTTSNYANWVQEKPDHLFTGLIGGTNKRAPGVPARFSGSLIGDKAALTITGAQTEDEAIYFCALWYSNLWVFGGGTKLTVL
notes: His/FLAG-tagged IgG1
In test [1], B3 had a Kd of 3.79 nM, a koff of 0.000568 s⁻¹ and a kon of 150000 M⁻¹ s⁻¹. Also, in the test with human ROR1 (hROR1), the “Bmax (MFI)” value stood at 14600 MFI and the Kd amounted to 0.2 nM.

B4: SRP2196-C04 (antibody, V domains shown)
VH: EVQLVESGGGLVQPGGSLRLSCAASGFNITGYYIHWVRQAPGKGLEWVGFIAPLSGSTHNADSVKGRFTISADTSKNTAYLQMNSLRAEDTAVYYCARESRRYVNPWDYWGQGTLVTVSS
VL: QAVVTQESALTTSPGETVTLTCRSSTGAVTTSNYANWVQEKPDHLFTGLIGGTNKRAPGVPARFSGSLIGDKAALTITGAQTEDEAIYFCALWYSNLWVFGGGTKLTVL
notes: His/FLAG-tagged IgG1; also called Antibody 162
Take B4: in test [1], the Kd amounted to 5.35 nM, the koff was 0.000704 s⁻¹ and the kon turned out to be 131000 M⁻¹ s⁻¹. Moreover, in the test with human ROR1 (hROR1), the “Bmax (MFI)” value turned out to be 13800 MFI and the Kd came to 0.5 nM.

B5: SRP2196-B06 (antibody, V domains shown)
VH: EVQLVESGGGLVQPGGSLRLSCAASGFNITGYYIHWVRQAPGKGLEWVGQISPNSGSTYSADSVKGRFTISADTSKNTAYLQMNSLRAEDTAVYYCARDSRRYVLSWDYWGQGTLVTVSS
VL: QAVVTQESALTTSPGETVTLTCRSSTGAVTTSNYANWVQEKPDHLFTGLIGGTNKRAPGVPARFSGSLIGDKAALTITGAQTEDEAIYFCALWYSNLWVFGGGTKLTVL
notes: His/FLAG-tagged IgG1
As to B5, in test [1], the Kd turned out to be 2.98 nM, the koff was 0.000423 s⁻¹ and the kon is 142000 M⁻¹ s⁻¹. Moreover, in the test with human ROR1 (hROR1), the “Bmax (MFI)” value worked out at 14800 MFI and the Kd was found to be 0.4 nM.

B6: SRP2196-C02 (antibody, V domains shown)
VH: EVQLVESGGGLVQPGGSLRLSCAASGFNITGYHIHWVRQAPGKGLEWVGFISPNSGWTYSADSVKGRFTISADTSKNTAYLQMNSLRAEDTAVYYCARDSRRYVRPFDYWGQGTLVTVSS
VL: QAVVTQESALTTSPGETVTLTCRSSTGAVTTSNYANWVQEKPDHLFTGLIGGTNKRAPGVPARFSGSLIGDKAALTITGAQTEDEAIYFCALWYSNLWVFGGGTKLTVL
notes: His/FLAG-tagged IgG1
Consider B6, for which, in test [1], the Kd was 3.02 nM, the koff was 0.00036 s⁻¹ and the on-rate (kon) amounted to 119000 M⁻¹ s⁻¹. Besides, in the test with human ROR1 (hROR1), the “Bmax (MFI)” value was determined as 15300 MFI and binding was put at a Kd of 0.6 nM.

B7: SRP2196-B09 (antibody, V domains shown)
VH: EVQLVESGGGLVQPEGSLRLSCAASGFNITEYYIHWVRQAPGKGLEWVGYISPNSGSTYYADSVKGRFTISADTSKNTAYLQMNSLRAEDTAVYYCARDSRRYVRSWDYWGQGTLVTVSS
VL: QAVVTQESALTTSPGETVTLTCRSSTGAVTTSNYANWVQEKPDHLFTGLIGGTNKRAPGVPARFSGSLIGDKAALTITGAQTEDEAIYFCALWYSNLWVFGGGTKLTVL
notes: His/FLAG-tagged IgG1; also called Antibody 160
Take B7: in test [1], the Kd was determined as 3.28 nM, the koff is 0.000427 s⁻¹ and the on-rate (kon) is 130000 M⁻¹ s⁻¹. In addition, in the test with human ROR1 (hROR1), the “Bmax (MFI)” value came out at 15000 MFI and the Kd was determined as 0.6 nM.

B8: SRP2196-B11 (antibody, V domains shown)
VH: EVQLVESGGGLVQPGGSLRLSCAASGFNITGYYIHWVRQAPGRGLEWVGQISPNSGYTYYADSVKGRFTISADTSKNTAYLQMNSLRAEDTAVYYCARDSRRYIRSWDYWGQGTLVTVSS
VL: QAVVTQESALTTSPGETVTLTCRSSTGAVTTSNYANWVQEKPDHLFTGLIGGTNKRAPGVPARFSGSLIGDKAALTITGAQTEDEAIYFCALWYSNLWVFGGGTKLTVL
notes: His/FLAG-tagged IgG1
For B8, in test [1], binding was put at a Kd of 4.36 nM, the koff was found to be 0.000597 s⁻¹ and the kon came out at 137000 M⁻¹ s⁻¹. Also, in the test with human ROR1 (hROR1), the “Bmax (MFI)” value stood at 14700 MFI and the Kd came to 0.2 nM.

B9: SRP2196-C01 (antibody, V domains shown)
VH: EVQLVESGGGLVQPGGSLRLSCAASGFNIIGYYIHWVRQAPGKGLEWVGSITPLSGATSKADSVKGRFTISADTSKNTAYLQMNSLRAEDTAVYYCARDSRRYIRSWDYWGQGTLVTVSS
VL: QAVVTQESALTTSPGETVTLTCRSSTGAVTTSNYANWVQEKPDHLFTGLIGGTNKRAPGVPARFSGSLIGDKAALTITGAQTEDEAIYFCALWYSNLWVFGGGTKLTVL
notes: His/FLAG-tagged IgG1
In test [1], B9 showed a Kd of 3.66 nM, an off-rate (koff) of 0.000457 s⁻¹ and a kon of 125000 M⁻¹ s⁻¹. Further, in the test with human ROR1 (hROR1), the “Bmax (MFI)” value worked out at 15700 MFI and the Kd is 0.3 nM.

B10: SRP2196-B04 (antibody, V domains shown)
VH: EVQLVESGGGLVQPGGSLRLSCAASGFNITEYYIHWVRQAPGKGLEWVGYISPNSGATYQADSVKGRFTISADTSKNTAYLQMNSLRAEDTAVYYCARDSRRYVRGWDYWGQGTLVTVSS
VL: QAVVTQESALTTSPGETVTLTCRSSTGAVTTSNYANWVQEKPDHLFTGLIGGTNKRAPGVPARFSGSLIGDKAALTITGAQTEDEAIYFCALWYSNLWVFGGGTKLTVL
notes: His/FLAG-tagged IgG1
Take B10: in test [1], the Kd amounted to 2.78 nM, the koff stood at 0.000352 s⁻¹ and the kon was 127000 M⁻¹ s⁻¹. For the same molecule, in the test with human ROR1 (hROR1), the “Bmax (MFI)” value amounted to 14400 MFI and binding was characterised by a dissociation constant (Kd) of 0.5 nM.

B11: SRP2196-C03 (antibody, V domains shown)
VH: EVQLVESGGGLVQPGGSLRLSCAASGFNITGYYIHWVRQAPGKGLEWVGQISPNSGSTYSADSVKGRFTISADTSKNTAYLQMSSLRAEDTAVYYCARDSRRYVLSWDYWGQGTLVTVSS
VL: QAVVTQESALTTSPGETVTLTCRSSTGAVTTSNYANWVQEKPDHLFTGLIGGTNKRAPGVPARFSGSLIGDKAALTITGAQTEDEAIYFCALWYSNLWVFGGGTKLTVL
notes: His/FLAG-tagged IgG1
In test [1], B11 displayed a Kd of 3.23 nM, a koff of 0.000461 s⁻¹ and a kon of 143000 M⁻¹ s⁻¹. Further, in the test with human ROR1 (hROR1), the “Bmax (MFI)” value was found to be 15000 MFI and the Kd stood at 0.4 nM.

B12: SRP2196-B10 (antibody, V domains shown)
VH: EVQLVESGGGLVQPGGSLRLSCAASGFNITGYYIHWVRQAPGKGLEWVGSITPLSGATSKADSVKGRFTISADTSKNTAYLQMNSLRAEDTAVYYCARDSRRYIRSWDYWGQGTLVTVSS
VL: QAVVTQESALTTSPGETVTLTCRSSTGAVTTSNYANWVQEKPDHLFTGLIGGTNKRAPGVPARFSGSLIGDKAALTITGAQTEDEAIYFCALWYSNLWVFGGGTKLTVL
notes: His/FLAG-tagged IgG1; also called Antibody 167
In test [1], B12 registered a Kd of 2.61 nM, a koff of 0.000334 s⁻¹ and a kon of 128000 M⁻¹ s⁻¹. In the test with human ROR1 (hROR1), the “Bmax (MFI)” value was found to be 14700 MFI and binding was characterised by a dissociation constant (Kd) of 0.3 nM.

B13: SRP2188-A06 (antibody, IgG1, V domains shown)
VH: EVQLVESGGGLVQPGGSLRLSCAASGFNIKSYDIHWVRQAPGKGLEWVGWINPDDGDTYHADSVKGRFTISADTSKNTAYLQMNSLRAEDTAVYYCARDYGVFDYWGQGTLVTVSS
VL: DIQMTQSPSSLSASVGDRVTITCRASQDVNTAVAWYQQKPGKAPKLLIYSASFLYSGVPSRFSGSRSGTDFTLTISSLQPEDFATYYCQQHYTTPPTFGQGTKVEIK
notes: IgG1 with trastuzumab LC; HIS- and FLAG-tagged; cell-free expressed
Turning to B13, in test [2], the “Bmax (MFI)” value was 8950 MFI and the Kd came out at 0.02 nM.

B14: SRP2188-B11 (antibody, IgG1, V domains shown)
VH: EVQLVESGGGLVQPGGSLRLSCAASGFNINRYDIHWVRQAPGKGLEWVGWINPDDGDTFLADSVKGRFTISADTSKSTAYLQMNSLRAEDTAVYYCARDYGVFDYWGQGTLVTVSS
VL: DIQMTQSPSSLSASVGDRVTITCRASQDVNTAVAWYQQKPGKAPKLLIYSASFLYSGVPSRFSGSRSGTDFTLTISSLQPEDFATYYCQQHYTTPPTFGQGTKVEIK
notes: as for B13
With B14, in test [2], the “Bmax (MFI)” value stood at 8730 MFI and the Kd amounted to 0.04 nM.

B15: SRP2188-B02 (antibody, IgG1, V domains shown)
VH: EVQLVESGGGLVQPGGSLRLSCAASGFNISSYDIHWVRQAPGKGLEWVGWINPDDGDTYLADSVKGRFTISADTSKSTAYLQMNSLRAEDTAVYYCARDYGVFDYWGQGTLVTVSS
VL: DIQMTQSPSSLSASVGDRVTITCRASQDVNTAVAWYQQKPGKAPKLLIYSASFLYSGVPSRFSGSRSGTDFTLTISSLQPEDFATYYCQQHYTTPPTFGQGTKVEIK
notes: as for B13
Turning to B15, in test [2], the “Bmax (MFI)” value worked out at 9760 MFI and binding was put at a Kd of 0.03 nM.

B16: SRP2188-C08 (antibody, IgG1, V domains shown)
VH: EVQLVESGGGLVQPGGSLRLSCAASGFNIKSHDIHWVRQAPGKGLEWVGWINPDDGDTYHADSVKGRFTISADTSKNTAYLQMNSLRAEDTAVYYCARDYGVFDYWGQGTLVTVSS
VL: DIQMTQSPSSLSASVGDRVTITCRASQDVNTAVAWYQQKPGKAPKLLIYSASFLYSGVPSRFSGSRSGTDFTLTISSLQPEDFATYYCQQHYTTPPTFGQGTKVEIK
notes: as for B13
For the molecule B16, in test [2], the “Bmax (MFI)” value is 8570 MFI and the Kd is 0.03 nM.

B17: SRP2188-C06 (antibody, IgG1, V domains shown)
VH: EVQLVESGGGLVQPGGSLRLSCAASGFNINSYDIHWVRQAPGKGLEWVGWINPDDGDTYLADSVKGRFTISADTSKNTAYLQMNSLRAEDTAVYYCARDYGVFDYWGQGTLVTVSS
VL: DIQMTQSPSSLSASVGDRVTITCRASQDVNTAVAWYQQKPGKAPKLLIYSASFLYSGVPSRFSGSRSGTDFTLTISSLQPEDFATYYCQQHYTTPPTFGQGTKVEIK
notes: as for B13
In the case of B17, in test [2], the “Bmax (MFI)” value came out at 9580 MFI and the Kd was 0.03 nM.

B18: SRP2188-C01 (antibody, IgG1, V domains shown)
VH: EVQLVESGGGLVQPGGSLRLSCAASGFNIISYDIHWVRQAPGKGLEWVSLIDPHDGSTDSADSVKGRFTISADTSKNTAYLQMNSLRAEDTAVYYCARDYGVFDYWGQGTLVTVSS
VL: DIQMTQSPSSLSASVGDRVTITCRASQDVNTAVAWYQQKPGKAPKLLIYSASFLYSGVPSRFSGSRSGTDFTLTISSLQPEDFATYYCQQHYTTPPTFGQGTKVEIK
notes: as for B13
As for B18, in test [2], the “Bmax (MFI)” value came to 10100 MFI and the Kd worked out at 0.38 nM.
